Experimental data taken from patent US20180037631A1 (Bristol-Myers Squibb, published 2018).

target: T1, EGFR on the surface of human tumour cells (A431, H292) (human, UniProt P00533 25-1210); assay: cell-based or functional assay

Binder	% inhibition of EGFR phosphorylation at 100 nM binder, cell-based assay
E70 (designed binder) 10Fn3 domain: MGVSDVPRDLEVVAATPTSLLISWVSARGRYQYYRITYGETGGNSPVQEFTVPGGVRTATISGLKPGVDYTITVYAVTDYYNLETYEYHYYRTPISINYRTEIDKPSQ	76.8%
E59 (designed binder) 10Fn3 domain: MGVSDVPRDLEVVAATPTSLLISWRARRLQYQYYRITYGETGGNSPVQEFTVPGMVTTATISGLKPGVDYTITVYAVTDFYNPATMEYTYQRTPISINYRTEIDKPSQ	76.3%
E67 (designed binder) 10Fn3 domain: MGVSDVPRDLEVVAATPTSLLISWSSVMGLYQYYRITYGETGGNSPVQEFTVPYDVYTATISGLKPGVDYTITVYAVTDYYNPSTYEYKYNTTPISINYRTEIDKPSQ	75.3%
E72 (designed binder) 10Fn3 domain: MGVSDVPRDLEVVAATPTSLLISWSATRTLYQYYRITYGETGGNSPVQEFTVPYDVHTATISGLKPGVDYTITVYAVTDYYNMVTYEYNYHLTPISINYRTEIDKPSQ	82.8%
E68 (designed binder) 10Fn3 domain: MGVSDVPRDLEVVAATPTSLLISWKTEPGRHQYYRITYGETGGNSPVQEFTVPGGVRTATISGLKPGVDYTITVYAVTDWYNLVSHEYVYHTTPISINYRTEIDKPSQ	78.5%
E63 (designed binder) 10Fn3 domain: MGVSDVPRDLEVVAATPTSLLISWDTSGASYQYYRITYGETGGNSPVQEFTVPYSVYTATISGLKPGVDYTITVYAVTDYYDPDSHYYNYNMVPISINYRTEIDKPSQ	76.2%
E60 (designed binder) 10Fn3 domain: MGVSDVPRDLEVVAATPTSLLISWLQPLWRYQYYRITYGETGGNSPVQEFTVPGGLDTATISGLKPGVDYTITVYAVTDYKPHVDGPHAYHEYPISINYRTEIDKPSQ	100%
E61 (designed binder) 10Fn3 domain: MGVSDVPRDLEVVAATPTSLLISWDASQGNYQYYRITYGETGGNSPVQEFTVPGAVKTATISGLKPGVDYTITVYAVTDFFNPATHEYIYHTTPISINYRTEIDKPSQ	79.8%
E69 (designed binder) 10Fn3 domain: MGVSDVPRDLEVVAATPTSLLISWHAGMAVYQYYRITYGETGGNSPVQEFTVPGDVLTATISGLKPGVDYTITVYAVTDFFNPVTHEYMYHTIPISINYRTEIDKPSQ	85.1%
E66 (designed binder) 10Fn3 domain: MGVSDVPRDLEVVAATPTSLLISWKSYGSAYQYYRITYGETGGNSPVQEFTVPGDLQTATISGLKPGVDYTITVYAITDYYNPDTHEYKYHVSPISINYRTEIDKPSQ	75%
E64 (designed binder) 10Fn3 domain: MGVSDVPRDLEVVAATPTSLLISWDSGNGTYQYYRITYGETGGNSPVQEFTVPYRVYTATISGLKPGVDYTITVYAVTDYYNPATHEYTYELRPISINYRTEIDKPSQ	78.2%
E65 (designed binder) 10Fn3 domain: MGVSDVPRDLEVVATTPTSLLISWRPTSQVYQYYRITYGETGGNSPVQEFTVPYNVYTATISGLKPGVDYTITVYAVTDFFNYATHEYIYHTIPISINYRTEIDKPSQ	80.7%
E62 (designed binder) 10Fn3 domain: MGVSDVPRDLEVVAATPTSLLISWCLDGQLYQYYRITYGETGGNSPVQEFTVPGSIVTATISGLKPGVDYTITVYAVTDWYNLATHEYNYRVTPISINYRTEIDKPSQ	78.9%
E71 (designed binder) 10Fn3 domain: MGVSDVPRDLEVVAATPTSLLISWWFGTSSYQYYRITYGETGGNSPVQEFTVPGDLKTATISGLKPGVDYTITVYAVTDYFNPVTHEYEYHTTPISINYRTEIDKPSQ	80.4%

target: T1, EGFR on the surface of human tumour …; assay: cell-based or functional assay; remark: another data set of the same source

Binder	% inhibition of EGFR phosphorylation at 100 nM binder, cell-based assay
E42 (designed binder) 10Fn3 domain: MGVSDVPRDLEVVAATPTSLLISWVVPNWMYQYYRITYGETGGNSPVQEFTVPGMLETATISGLKPGVDYTITVYAVTDYYNPTTYEYTYFTYPISINYRTEIDKPSQ	77.3%
E44 (designed binder) 10Fn3 domain: MGVSDVPRDLEVVAATPTSLLISWDSEGPSYQYYRITYGETGGNSPVQEFTVPYAVYTATISGLKPGVDYTITVYAVTDYYNPRTHELFFQQYPISINYRTEIDKPSQ	83.3%
E32 (designed binder) 10Fn3 domain: MGVSDVPRDLEVVAATPTSLLISWVSLVGFYQYYRITYGETGGNSPVQEFTVPGGVHTATISGLKPGVDYTITVYAVTDYKPHADGPHTYHESPISINYRTEIDKPSQ	86%
E34 (designed binder) 10Fn3 domain: MGVSDVPRDLEVVAATPTSLLISWLAPFWRYQYYRITYGETGGNSPVQEFTVPGGVRTATISGLKPGVDYTITVYAVTDYKPHADGPHTYHESPISINYRTEIDKPSQ	80.4%
E39 (designed binder) 10Fn3 domain: MGVSDVPRDLEVVAATPTSLLISWQVSAFRYQYYRITYGETGGNSPVQEFTVPGMVSTATISGLKPGVDYTITVYAVTDYKPHADGPHTYSEYPISINYRTEIDKPSQ	76.7%
E36 (designed binder) 10Fn3 domain: MGVSDVPRDLEVVAATPTSLLISWESGSRTYQYYRITYGETGGNSPVQEFTVPGGVHTATISGLKTGVDYTITVYAVTDYKPHADGPHTYHEYPISINYRTEIDKPSQ	81.3%
E43 (designed binder) 10Fn3 domain: MGVSDVPRDLEVVAATPTSLLISWSGGFMRYQYYRITYGETGGNSPVQEFTVPGQVYTATISGLKPGVDYTITVYAVTDYKPHADGPHTYHESPISINYRTEIDKPSQ	75%
E35 (designed binder) 10Fn3 domain: MGVSDVPRDLEVVAATPTSLLISWTPPGHQHQYYRITYGETGGNSPVQEFTVPGQVTTATISGLKPGVDYTITVYAVTDYYNPATHYYTYYTTPISINYRTEIDKPSQ	90.2%
E37 (designed binder) 10Fn3 domain: MGVSDVPRDLEVVAATPTSLLISWERTSTHYQYYRITYGETGGNSPVQEFTVPGRVYTATISGLKPGVDYTITVYAVTDYYNPATHEYKYHQTPISINYRTEIDKPSQ	80.8%
E41 (designed binder) 10Fn3 domain: MGVSDVPRDLEVVAATPTSLLISWTPPNSGHNYYRITYGETGGNSPVQEFTVPHDLTTATISGLKPGVDYTITVYAVTDYYNPNTYEYTYQFTPISINYRTEIDKPSQ	75.2%
E33 (designed binder) 10Fn3 domain: MGVSDVPRDLEVVAATPTSLLISWASRKEVYQYYRITYGETGGNSPVQEFTVPGWLNTATISGLKPGVDYTITVYAVTDYMHVEYAEYPISINYRTEIDKPSQ	75.8%
E40 (designed binder) 10Fn3 domain: MGVSDVPRDLEVVAATPTSLLISWVLGRRVYQYYRITYGETGGNSPVQEFTVPGAVYTATISGLKPGVDYTITVYAVTDYFNPATHEYQYELTPISINYRTEIDKPSQ	89.6%
E45 (designed binder) 10Fn3 domain: MGVSDVPRDLEVVAATPTSLLISWQVPRPMYQYYRITYGEKGGNSPVQEFTVPHDLRTATISGLKPGVDYTITVYAVTDYYDPTSNLYNYNQTPISINYRTEIDKPSQ	80.4%
E38 (designed binder) 10Fn3 domain: MGVSDVPRDLEVVAATPTSLLISWNARTDAYQYYRITYGETGGNSPVQEFTVPRDLETATISGLKPGVDYTITVYAVTDYKPHADGPHTYQESPISINYRTEIDKPSQ	89.8%

target: T1, EGFR on the surface of human tumour …; assay: cell-based or functional assay; remark: another data set of the same source

Binder	% inhibition of EGFR phosphorylation at 100 nM binder, cell-based assay
E75 (designed binder) 10Fn3 domain: MGVSDVPRDLEVVAATPTSLLISWAAGRATYQYYRITYGETGGNSPVQEFTVPYDVTTATISGLKPGVDYTITVYAVTDFYNPATHEYYYETTPISINYRTEIDKPSQ	76.5%
E74 (designed binder) 10Fn3 domain: MGVSDVPRDLEVVAATPTSLLISWRASGGLYQYYRITYGETGGNSPVQEFTVPGSVNTATISGLKPGVDYTITVYAVTDFYNPATYEYIYHTTPISINYRTEIDKPSQ	80.9%
E73 (designed binder) 10Fn3 domain: MGVSDVPRDLEVVVATPTSLLISWTKLLGGYQYYRITYGETGGNSPVQEFTVPGPVYTATISGLKPGVDYTITVYAVTDFFNPRTHEYQYHTTPISINYRTEIDKPSQ	78.8%
